The chains are these.
B1: library; numbered along this chain (parent)
chain: MNIQIGELAKRTACPVVTIRFYEQEGLLPPPGRSRGNFRLYGEEHVERLQFIRHCRSLDMPLSDVRTLLSYRKRPDQDCGEVNMLLDEHIRQVESRIGALLELKHHLVELREACSGARPAQSCGILQGLSDCVCDTRGTTAHPSD

± gives the standard deviation of the averaged measurements.

Variants of B1 are the subject of data set [1]. Description: sfGFP reporter fluorescence (15 h) (µM FITC); higher = higher leak. As to conditions: library round: Round 0; ligand: none. The essentials: (§1)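 Values are endpoint sfGFP fluorescence given as µM FITC equivalents. Fluorescence was read at 485/528 nm on a Synergy Neo2, and FITC standard curves were prepared in 50 mM sodium borate pH 8.5. Reactions of 1 μL combined BL21 Star (DE3) PANOx-SP extract, pPbrR-sfGFP reporter, 30 μg/mL GamS and linear PbrR templates (PCR-made, Echo-normalized to 5 nM), with 1 µM lead chloride, 30 µM zinc acetate or no metal, for 15 hr at 30 °C.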

Variants of B1 are the subject of data set [2]. Description: sfGFP reporter fluorescence (15 h) (µM FITC); higher = stronger transcriptional activation. The following applies: library round: Round 0. The essentials:
as §1

Take D64C: the values for the sfGFP reporter fluorescence in data set [1], in data set [2] (ligand: 1 µM Pb) and in data set [2] (ligand: 30 µM Zn) were 0.0848 ± 0.032, 0.335 ± 0.072 and 2.45 ± 0.3, respectively.

For D64I, the sfGFP reporter fluorescence in data set [1] came out at 0.256 ± 0.028; in data set [2] (ligand: 1 µM Pb), 0.837 ± 0.025; in data set [2] (ligand: 30 µM Zn), 3.78 ± 0.41.

With D64A, the sfGFP reporter fluorescence in data set [1] worked out at 0.0874 ± 0.0065; in data set [2] (ligand: 1 µM Pb), 0.158 ± 0.049; in data set [2] (ligand: 30 µM Zn), 2.22 ± 0.24.

With I90S, the sfGFP reporter fluorescence in data set [1] is 0.0601 ± 0.0031; in data set [2] (ligand: 1 µM Pb), 0.0671 ± 0.0036; in data set [2] (ligand: 30 µM Zn) it was 0.384 ± 0.0091.

As to I90V, the sfGFP reporter fluorescence in data set [1] turned out to be 0.059 ± 0.0036; in data set [2] (ligand: 1 µM Pb), 0.064 ± 0.00078; in data set [2] (ligand: 30 µM Zn) it was 0.583 ± 0.015.

For the variant I90M, the sfGFP reporter fluorescence in data set [1] was 0.0588 ± 0.0018; in data set [2] (ligand: 1 µM Pb) it was 0.0625 ± 0.0018; in data set [2] (ligand: 30 µM Zn), 0.384 ± 0.013.

As to R33S, the values for the sfGFP reporter fluorescence in data set [1], in data set [2] (ligand: 1 µM Pb) and in data set [2] (ligand: 30 µM Zn) were 0.0623 ± 0.00052, 0.0605 ± 0.0031 and 0.0656 ± 0.001, respectively.

As for E7L, the sfGFP reporter fluorescence in data set [1] was 0.06175 ± 0.00026; in data set [2] (ligand: 1 µM Pb), 0.0837 ± 0.0013; in data set [2] (ligand: 30 µM Zn), 0.846 ± 0.052.

In the case of G6Q, the sfGFP reporter fluorescence was 0.0592 ± 0.0023 in data set [1], 0.05754 ± 0.00052 in data set [2] (ligand: 1 µM Pb) and 0.0746 ± 0.0039 in data set [2] (ligand: 30 µM Zn).

For L129R, the sfGFP reporter fluorescence in data set [1] came to 0.0588 ± 0.00078; in data set [2] (ligand: 1 µM Pb), 0.05901 ± 0.00052; in data set [2] (ligand: 30 µM Zn), 0.0557.

Turning to L129I, the sfGFP reporter fluorescence was determined as 0.0535 ± 0.0021 in data set [1], 0.0592 ± 0.0013 in data set [2] (ligand: 1 µM Pb) and 0.163 ± 0.012 in data set [2] (ligand: 30 µM Zn).

On to L129F, for which the sfGFP reporter fluorescence in data set [1] stood at 0.0559 ± 0.0013; in data set [2] (ligand: 1 µM Pb) it was 0.0581 ± 0.00078; in data set [2] (ligand: 30 µM Zn) it was 0.0564 ± 0.001.

In the case of L129E, the sfGFP reporter fluorescence in data set [1] is 0.0581 ± 0.0013; in data set [2] (ligand: 1 µM Pb) it was 0.0597 ± 0.0021; in data set [2] (ligand: 30 µM Zn) it was 0.0546 ± 0.0015.

I125C: the sfGFP reporter fluorescence in data set [1] was determined as 0.0596 ± 0.00078; in data set [2] (ligand: 1 µM Pb), 0.05901 ± 0.00052; in data set [2] (ligand: 30 µM Zn) it was 0.0568 ± 0.0047.

Consider D145A, for which the sfGFP reporter fluorescence in data set [1] stood at 0.0599 ± 0.0013; in data set [2] (ligand: 1 µM Pb) it was 0.0702 ± 0.0039; in data set [2] (ligand: 30 µM Zn) it was 0.56 ± 0.036.

L107N: the sfGFP reporter fluorescence in data set [1] worked out at 0.0546 ± 0.0047; in data set [2] (ligand: 1 µM Pb), 0.0759 ± 0.0015; in data set [2] (ligand: 30 µM Zn), 0.511 ± 0.027.

For L107V, the sfGFP reporter fluorescence in data set [1] came to 0.0854 ± 0.001; in data set [2] (ligand: 1 µM Pb) it was 0.19 ± 0.022; in data set [2] (ligand: 30 µM Zn), 2.03 ± 0.021.

As for L107R, the sfGFP reporter fluorescence was found to be 0.059 ± 0.001 in data set [1], 0.055 ± 0.0021 in data set [2] (ligand: 1 µM Pb) and 0.0781 ± 0.0031 in data set [2] (ligand: 30 µM Zn).

Take L107C: the figures for the sfGFP reporter fluorescence in data set [1], in data set [2] (ligand: 1 µM Pb) and in data set [2] (ligand: 30 µM Zn) were 0.491 ± 0.053, 1.05 ± 0.062 and 2.85 ± 0.46, respectively.

Consider L107Q, for which the sfGFP reporter fluorescence in data set [1] is 0.0579 ± 0.0047; in data set [2] (ligand: 1 µM Pb) it was 0.08521 ± 0.00078; in data set [2] (ligand: 30 µM Zn) it was 0.764 ± 0.047.

Take P15C: the sfGFP reporter fluorescence in data set [1] turned out to be 0.0656 ± 0.0052; in data set [2] (ligand: 1 µM Pb), 0.0826 ± 0.0018; in data set [2] (ligand: 30 µM Zn), 0.5684 ± 0.001.

Regarding P15N, the sfGFP reporter fluorescence in data set [1] turned out to be 0.0629 ± 0.0034; in data set [2] (ligand: 1 µM Pb), 0.0859 ± 0.0018; in data set [2] (ligand: 30 µM Zn), 0.885 ± 0.022.

On to G128A, for which the sfGFP reporter fluorescence in data set [1] worked out at 0.09694 ± 0.00026; in data set [2] (ligand: 1 µM Pb), 0.211 ± 0.0065; in data set [2] (ligand: 30 µM Zn), 2.53 ± 0.17.

Take G128T: the figures for the sfGFP reporter fluorescence in data set [1], in data set [2] (ligand: 1 µM Pb) and in data set [2] (ligand: 30 µM Zn) were 0.0647 ± 0.0018, 0.0885 ± 0.014 and 1.21 ± 0.22, respectively.

With H89M, the sfGFP reporter fluorescence in data set [1] is 0.061 ± 0.0013; in data set [2] (ligand: 1 µM Pb), 0.06359 ± 0.00026; in data set [2] (ligand: 30 µM Zn), 0.1426 ± 0.00052.

For H89E, the sfGFP reporter fluorescence in data set [1] amounted to 0.0647 ± 0.0023; in data set [2] (ligand: 1 µM Pb), 0.0795 ± 0.0031; in data set [2] (ligand: 30 µM Zn), 0.139 ± 0.0023.

M60L G128I: the sfGFP reporter fluorescence amounted to 0.336 ± 0.012 in data set [1], 1.4 ± 0.016 in data set [2] (ligand: 1 µM Pb) and 3.625 ± 0.027 in data set [2] (ligand: 30 µM Zn).

Take D64K K104V: the sfGFP reporter fluorescence in data set [1] worked out at 0.4361 ± 0.0031; in data set [2] (ligand: 1 µM Pb), 1.44 ± 0.053; in data set [2] (ligand: 30 µM Zn), 4.041 ± 0.031.

Regarding V82L, the sfGFP reporter fluorescence turned out to be 0.0574 ± 0.0034 in data set [1], 0.0583 ± 0.001 in data set [2] (ligand: 1 µM Pb) and 0.0724 ± 0.0044 in data set [2] (ligand: 30 µM Zn).

Take V82F: the sfGFP reporter fluorescence in data set [1] is 0.0572; in data set [2] (ligand: 1 µM Pb) it was 0.0572 ± 0.0015; in data set [2] (ligand: 30 µM Zn), 0.053 ± 0.0023.

Consider R91A, for which the sfGFP reporter fluorescence worked out at 0.0618 ± 0.00078 in data set [1], 0.0724 ± 0.0029 in data set [2] (ligand: 1 µM Pb) and 0.6942 ± 0.0015 in data set [2] (ligand: 30 µM Zn).

Consider L68A, for which the results for the sfGFP reporter fluorescence in data set [1], in data set [2] (ligand: 1 µM Pb) and in data set [2] (ligand: 30 µM Zn) were 0.0623 ± 0.001, 0.0619 ± 0.0047 and 0.156 ± 0.0049, respectively.

As for L68Q, the sfGFP reporter fluorescence was determined as 0.0603 ± 0.00078 in data set [1], 0.05736 ± 0.00026 in data set [2] (ligand: 1 µM Pb) and 0.0629 ± 0.0018 in data set [2] (ligand: 30 µM Zn).

Take D131L: the sfGFP reporter fluorescence was 0.0663 ± 0.0042 in data set [1], 0.119 ± 0.0091 in data set [2] (ligand: 1 µM Pb) and 0.994 ± 0.19 in data set [2] (ligand: 30 µM Zn).

Consider D131K, for which the figures for the sfGFP reporter fluorescence in data set [1], in data set [2] (ligand: 1 µM Pb) and in data set [2] (ligand: 30 µM Zn) were 0.0706 ± 0.0029, 0.127 ± 0.012 and 1.5 ± 0.34, respectively.

On to L27T, for which the sfGFP reporter fluorescence was found to be 0.0621 ± 0.0013 in data set [1], 0.06029 ± 0.00026 in data set [2] (ligand: 1 µM Pb) and 0.0594 ± 0.0026 in data set [2] (ligand: 30 µM Zn).

In the case of F21E, the sfGFP reporter fluorescence in data set [1] turned out to be 0.0596 ± 0.00078; in data set [2] (ligand: 1 µM Pb), 0.06175 ± 0.00026; in data set [2] (ligand: 30 µM Zn) it was 0.0608 ± 0.0015.

As to F21C, the sfGFP reporter fluorescence came to 0.0599 ± 0.0029 in data set [1], 0.0597 in data set [2] (ligand: 1 µM Pb) and 0.0583 ± 0.001 in data set [2] (ligand: 30 µM Zn).

In the case of S57A, the sfGFP reporter fluorescence in data set [1] was determined as 0.059 ± 0.0015; in data set [2] (ligand: 1 µM Pb), 0.0575 ± 0.001; in data set [2] (ligand: 30 µM Zn), 0.184 ± 0.011.

For R56A, the figures for the sfGFP reporter fluorescence in data set [1], in data set [2] (ligand: 1 µM Pb) and in data set [2] (ligand: 30 µM Zn) were 0.0616, 0.0616 ± 0.0026 and 0.1308 ± 0.00052, respectively.

Consider S122A, for which the results for the sfGFP reporter fluorescence in data set [1], in data set [2] (ligand: 1 µM Pb) and in data set [2] (ligand: 30 µM Zn) were 0.06249 ± 0.00026, 0.0762 ± 0.0015 and 0.687 ± 0.05, respectively.

On to C55D, for which the sfGFP reporter fluorescence was determined as 0.0608 ± 0.0021 in data set [1], 0.061 ± 0.0018 in data set [2] (ligand: 1 µM Pb) and 0.0592 ± 0.00078 in data set [2] (ligand: 30 µM Zn).

With H142A, the sfGFP reporter fluorescence in data set [1] came to 0.0614 ± 0.0034; in data set [2] (ligand: 1 µM Pb) it was 0.0718 ± 0.001; in data set [2] (ligand: 30 µM Zn), 0.728 ± 0.32.

Turning to G32A, the results for the sfGFP reporter fluorescence in data set [1], in data set [2] (ligand: 1 µM Pb) and in data set [2] (ligand: 30 µM Zn) were 0.0614 ± 0.0013, 0.0586 ± 0.0052 and 0.467 ± 0.086, respectively.

Take R20P: the sfGFP reporter fluorescence in data set [1] stood at 0.06285 ± 0.00026; in data set [2] (ligand: 1 µM Pb), 0.05974 ± 0.00052; in data set [2] (ligand: 30 µM Zn) it was 0.0673 ± 0.0013.
